Laboratory results taken from patent US20260274991A1.

Biological target: Native Trypsin (abcam)
Experiment: cell-based or functional assay

IC50 Against 0.25 nM Native Trypsin: 4.8 nM
B1: Trypsin 1/Trypsin 2-Dual-L4-Ab5 (antibody, part only; not given: light chain variable domain, V domains shown, part only)
VH: QVQLVQSGAEVKKPGASVKVSCKASGYTFTDYAISWVRQAPGQGLEWMGWISASTADTNYAQKLQGRVTMTTDTSTSTAYMELRSLRSDDTAVYYCARQDEVVGKMTYYIGTDVWGQGTTVTVSS
